Measurements as given in patent US6858210B1, “Therapeutic and diagnostic domain 1 β2GPI polypeptides and methods of using same” (La Jolla Pharmaceutical Co., priority 1998, dated 2005).

What was measured:
[1] = tested on: APS patient plasma; assay: Surface plasmon resonance (BIAcore): APS patient plasma/serum over immobilized β2GPI proteins; type: binding, human; parameters: key: Req = fitted equilibrium plateau BIAcore response
From the text: (§1) Reagents. CM5 chips, NHS and EDC and HBS-EP buffer were from BIAcore. Human haptoglobin (phenotyope 1—1), a protein containing the short consensus repeat motif found in β2GPI, was immobilized in a separate flow cell on the chip and used as a negative control. Recombinant β2GPI and domain-deletion mutants of β2GPI were expressed in Tn5 cells using the baculovirus protein expression system and purified from the supernatants by nickel-chelation affinity column. Iverson et al. (1998) Proc. Natl. Acad. Sci. USA 95:15542-15546. Normal human plasma samples were purchased (George King Biomedical) or obtained in-house. Patient plasma samples from individuals diagnosed with either primary or secondary (to lupus) antiphospholipid antibody syndrome were obtained from a number of clinical sources.
(§2) The 55 controls used in this study were derived from a heterogenous sample. Thirty control samples (15 male; 15 female; mean age 34 yrs, range 19-45 yrs) purchased from George King Bio-Medical (Overland Park, Kans.), 5 local volunteers (3 male, 2 female), 2 pooled commercial sources and 18 blood bank donors of unknown origin were included in the analysis. The patient samples were collected from several sources and included patients with histories of venous thrombosis, arterial occlusions, cerebrovascular occlusions, multiple miscarriages and thrombocytopenia. All patients included in the study had IgG antiphospholipid antibody level (GPL) levels>20 by internal assay.
Total IgG fraction was isolated from plasma using Immunopure Plus protein G agarose beads and Immunopure IgG binding and elution buffers according to the manufacturers recommendation (Pierce).
(§3) Surface Plasmon Resonance. All experiments were performed using a BIAcore™ 2000 instrument at 25° C. with a flow rate of 10 μL/minute. Chip equilibration and binding studies were performed with degassed HBS-EP buffer, which consists of 0.01 M HEPES pH 7.4, 0.15 M NaCl, 3 mM EDTA and 0.005% (v/v) surfactant P20. Covalent coupling of protein ligands through their free amino groups to the CM5 chip was accomplished by flowing 40 μL of 0.05 M NHS/0.2M EDC over the chip to activate the chip, followed by exposure to the appropriate protein ligand. Recombinant β2GPI(His)6, domain-deletion mutants of β2GPI and haptoglobin were immobilized by flowing 50 μL of a 25 μg/mL solution in 10 mM acetate, (pH 4.8) over the NHS-activated CM5 chip. The excess reactive groups on the chip surface are then quenched with 40 μL of 1 M ethanoloamine, (pH 8.5). Human plasma samples (130 μL) were diluted 1:1 with HBS-EP, flowed over the β2GPI chip, and response values were collected for 780 seconds. The chips were regenerated between sample exposures with 80 μL of 0.1 M glycine-HCl (pH 2.1), 0.1 M NaCl. Since the approach to binding equilibrium was incomplete during the measurement period, the equilibrium binding value (Req) was determined by fitting the association curves to the following equation using the manufacturers software (BiaEvaluation version 2.2, Uppsala, Sweden) Rt=Req(I−e^−ks(t−t0))+R0 where Rt is the measured BIAcore response at time t, Req is the equilibrium plateau response, t is time, t0 is initial time, k, is an apparent association constant (ks=kaC+kdis, where ka is the association constant, C is the analyte concentration and kdis is the dissociation constant), and R0 is a response offset. In some experiments total IgG fractions from human plasma samples were obtained from binding to and acid elution from protein G. The plasma remaining after binding to protein G was remixed with fresh protein G beads and isolated as IgG-stripped plasma. Neutralized IgG preparations and IgG-stripped plasma diluted 1:1 with buffer were flowed over the β2GPI chip as described above. Results and Discussion

[2] = tested on: Normal human plasma; assay: Surface plasmon resonance (BIAcore): control plasma/serum over immobilized β2GPI proteins; type: binding; settings: serum of 55 controls
From the text: as §1, §2
as §3, with “Neutralized IgG preparations and IgG-stripped plasma diluted 1:1 with buffer were flowed over the β2GPI chip as described above. Results and Discussion” left out

B1: -2345: recombinant β2GPI deletion mutant with domains 2-5 (protein)
chain: GRTPRVCPFAGILENGAVRYTTFEYPNTISFSCNTGFYLNGADSAKCTEEGKWSPELPVCAPIICPPPSIPTFATLRVYKPSAGNNSLYRDTAVFECLPQHAMFGNDTITCTTHGNWTKLPECREVKCPFPSRPDNGFVNYPAKPTLYYKDKATFGCHDGYSLDGPEEIECTKLGNWSAMPSCKASCKLPVKKATVVYQGERVKIQEKFKNGMLHGDKVSFFCKNKEKKCSYTEDAQCIDGTIEVPKCFKEHSSLAFWKTDASDVKPCGHHHHHH
- Req ([1]; 43/106 APS patients with negligible interaction): < 9
- BIAcore Req ([1]; non-selective patient 6117, IgG-stripped Plasma (1:2)): 0
- BIAcore Req ([1]; non-selective patient 6117, Total IgG (1:4)): 79
- BIAcore Req ([1]; non-selective patient 6117, Whole Plasma (1:2)): 386
- BIAcore Req ([1]; non-selective patient 6194, IgG-stripped Plasma (1:2)): 0
- BIAcore Req ([1]; non-selective patient 6194, Total IgG (1:4)): 688
- BIAcore Req ([1]; non-selective patient 6194, Whole Plasma (1:2)): 3197
- BIAcore Req ([1]; non-selective patient 6611, IgG-stripped Plasma (1:2)): 0
- BIAcore Req ([1]; non-selective patient 6611, Total IgG (1:4)): 177
- BIAcore Req ([1]; non-selective patient 6611, Whole Plasma (1:2)): 1002
- BIAcore Req ([1]; non-selective patient 6627, IgG-stripped Plasma (1:2)): 0
- BIAcore Req ([1]; non-selective patient 6627, Total IgG (1:4)): 182
- BIAcore Req ([1]; non-selective patient 6627, Whole Plasma (1:2)): 549
- BIAcore Req ([1]; non-selective patient 6649, IgG-stripped Plasma (1:2)): 0
- BIAcore Req ([1]; non-selective patient 6649, Total IgG (1:4)): 127
- BIAcore Req ([1]; non-selective patient 6649, Whole Plasma (1:2)): 553
- BIAcore Req ([1]; non-selective patient 7013, IgG-stripped Plasma (1:2)): 0
- BIAcore Req ([1]; non-selective patient 7013, Total IgG (1:4)): 75
- BIAcore Req ([1]; non-selective patient 7013, Whole Plasma (1:2)): 167
- BIAcore Req ([1]; patient 6207, IgG-stripped Plasma (1:2)): 0
- BIAcore Req ([1]; patient 6207, Total IgG (1:4)): 0
- BIAcore Req ([1]; patient 6207, Whole Plasma (1:2)): 19
- BIAcore Req ([1]; patient 6501, IgG-stripped Plasma (1:2)): 0
- BIAcore Req ([1]; patient 6501, Total IgG (1:4)): 0
- BIAcore Req ([1]; patient 6501, Whole Plasma (1:2)): 333
- BIAcore Req ([1]; patient 6515, IgG-stripped Plasma (1:2)): 0
- BIAcore Req ([1]; patient 6515, Total IgG (1:4)): 0
- BIAcore Req ([1]; patient 6515, Whole Plasma (1:2)): 259
- BIAcore Req ([1]; patient 6601, IgG-stripped Plasma (1:2)): 0
- BIAcore Req ([1]; patient 6601, Total IgG (1:4)): 0
- BIAcore Req ([1]; patient 6601, Whole Plasma (1:2)): 84
- BIAcore Req ([1]; patient 6626, IgG-stripped Plasma (1:2)): 0
- BIAcore Req ([1]; patient 6626, Total IgG (1:4)): 0
- BIAcore Req ([1]; patient 6626, Whole Plasma (1:2)): 37
- BIAcore Req ([1]; patient 6642, IgG-stripped Plasma (1:2)): 0
- BIAcore Req ([1]; patient 6642, Total IgG (1:4)): 0
- BIAcore Req ([1]; patient 6642, Whole Plasma (1:2)): 8
- BIAcore Req ([1]; patient 6701, IgG-stripped Plasma (1:2)): 0
- BIAcore Req ([1]; patient 6701, Total IgG (1:4)): 0
- BIAcore Req ([1]; patient 6701, Whole Plasma (1:2)): 199
- BIAcore Req ([1]; patient 6703, IgG-stripped Plasma (1:2)): 0
- BIAcore Req ([1]; patient 6703, Total IgG (1:4)): 0
- BIAcore Req ([1]; patient 6703, Whole Plasma (1:2)): 65
- BIAcore Req ([1]; patient 7015, IgG-stripped Plasma (1:2)): 0
- BIAcore Req ([1]; patient 7015, Total IgG (1:4)): 0
- BIAcore Req ([1]; patient 7015, Whole Plasma (1:2)): 158
- BIAcore Req ([1]; patient 7201, IgG-stripped Plasma (1:2)): 0
- BIAcore Req ([1]; patient 7201, Total IgG (1:4)): 0
- BIAcore Req ([1]; patient 7201, Whole Plasma (1:2)): 0
- Median Req ([1]; serum of 106 APS patients (GPL ≧ 20)): 24
- Req (mean ± sem) ([1]; serum of 106 APS patients (GPL ≧ 20), diluted 1:1): 158 ± 36
- Median Req [2]: 103
- Req (mean ± sem) ([2]; diluted 1:1): 160 ± 26
